“And” between values parts separate entries of the source, which are not always exact repeats. Equal values may be shown once.
B1: H. armigera reductase: Helicoverpa armigera alcohol-forming fatty acyl-CoA reductase, SEQ ID NO: 41 (protein)
chain: MVVLTSKETKPSVAEFYAGKSVFITGGTGFLGKVFIEKLLYSCPDIENIYMLIREKKGLSVSERIKQFLDDPLFTRLKDKRPADLEKIVLIPGDITAPDLGINSENEKMLIEKVSVIIHSAATVKFNEPLPTAWKINVEGTRMMLALSRRMKRIEVFIHISTAYTNTNREVVDEILYPAPADIDQVHQYVKDGISEEDTEKILNGRPNTYTFTKALTEHLVAENQAYVPTIIVRPSVVAAIKDEPLKGWLGNWFGATGLTVFTAKGLNRVIYGHSSYIVDLIPVDYVANLVIAAGAKSSKSTELKVYNCCSSSCNPVTIGTLMSMFADDAIKQKSYAMPLPGWYIFTKYKWLVLLLTFLFQVIPAYVTDLSRHLIGKSPRYIKLQSLVNQTRSSIDFFTNHSWVMKADRVRELYASLSPADKYLFPCDPTDINWTHYIQDYCWGVRHFLEKKSYE
modifications: Helicoverpa armigera alcohol forming reductase (HaFAR)
B2: S. cerevisiae OLE1: native S. cerevisiae palmitoyl:CoA/stearoyl:CoA (Z)-9-desaturase, positive control (protein, UniProt P21147 1-510, looked up)
Acyl-CoA desaturase 1: MPTSGTTIELIDDQFPKDDSASSGIVDEVDLTEANILATGLNKKAPRIVNGFGSLMGSKEMVSVEFDKKGNEKKSNLDRLLEKDNQEKEEAKTKIHISEQPWTLNNWHQHLNWLNMVLVCGMPMIGWYFALSGKVPLHLNVFLFSVFYYAVGGVSITAGYHRLWSHRSYSAHWPLRLFYAIFGCASVEGSAKWWGHSHRIHHRYTDTLRDPYDARRGLWYSHMGWMLLKPNPKYKARADITDMTDDWTIRFQHRHYILLMLLTAFVIPTLICGYFFNDYMGGLIYAGFIRVFVIQQATFCINSLAHYIGTQPFDDRRTPRDNWITAIVTFGEGYHNFHHEFPTDYRNAIKWYQYDPTKVIIYLTSLVGLAYDLKKFSQNAIEEALIQQEQKKINKKKAKINWGPVLTDLPMWDKQTFLAKSKENKGLVIISGIVHDVSGYISEHPGGETLIKTALGKDATKAFSGGVYRHSNAAQNVLADMRVAVIKESKNSAIRMASKRGEIYETGKFF

Legend:
Assay type in all cases: cell-based, Saccharomyces cerevisiae
Z11-hexadecenoic acid = assay: in vivo bioconversion of Z11-hexadecenoic acid into Z11-hexadecenol by alcohol-forming reductases in S. cerevisiae
Description: S. cerevisiae W303 (MATA ura3-1 trp1-1 leu2-3_112 his3-11_15 ade2-1 can1-100) and BY4742 (MATa POX1::kanMX his3Δ1 leu2Δ0 lys2Δ0 ura3Δ0) were used as expression hosts. DNA sequences which encode fatty alcohol reductase variants were redesigned to optimize expression in S. cerevisiae (SEQ ID NOs: 1-3). Generated synthons (Genscript) were cloned into pESC-URA vector using BamHI-XhoI sites to facilitate protein expression utilizing the Gal1 promoter. The resulting plasmid constructs were used to transform W303, and positive transformants were selected on CM agar medium (with 2% glucose, and lacking uracil) (Teknova). To assess functional expression, two positive transformation clones that have been patched on CM agar medium (with 2% glucose, and lacking uracil) were used to seed CM liquid medium using a 24 deep-well plate format. […]
The lipids were extracted according to a modified procedure of Hagström et al. (2012) (Hagström, A. K., Liénard, M. A., Groot, A. T., Hedenström, E. & Löfstedt, C. Semi-Selective Fatty Acyl Reductases from Four Heliothine Moths Influence the Specific Pheromone Composition. PLoS One 7: e37230 (2012)). […] The trimethylsilyl-esters, which were generated by this method were subsequently analyzed by GC-MS analysis. […] A Z11-hexadecenol calibration curve shown in FIG. 9 was used to quantify the Z11-hexadecenol produced from yeasts. […]

S. cerevisiae ΔOLE1 = assay: ΔOLE1 growth complementation assay without UFA
Description: S. cerevisiae ΔOLE1 (MATA OLE1::LEU2 ura3-52 his4) was used as an expression host. A synthetic expression cassette termed pOLE1 (FIG. 10, SEQ ID NO: 4) which comprises the OLE1 promoter region (SEQ ID NOs: 5 and 6), nucleotides encoding for 27 N-terminal amino acids of the OLE1 leader sequence (SEQ ID NO: 7), and a VPS13 terminator sequence (SEQ ID NO: 8) was created, and cloned into pESC-URA vector in between SacI and EcoRI sites. To test the functionality of the pOLE1 cassette, Dasher GFP synthon was inserted in between SpeI and NotI sites to create pOLE1-GFP plasmid. Competent ΔOLE1 was transformed with pOLE1-GFP, and plated on CM-Ura glucose agar plate (Teknova) containing UFA (20 mm CM-URA glucose agar plate was coated with 100 μL CM-Ura glucose medium containing 1% tergitol, and 3 μL palmitoleic acid). […] Validation of ΔOLE1 complementation was performed by restoring OLE1 activity. Specifically, native S. cerevisiae OLE1 synthon was inserted into pOLE1 cassette devoid of the leader sequence to create pOLE1-OLE1 plasmid. After transformation of ΔOLE1, and selection on CM-Ura glucose agar containing UFA, single colonies were patched onto YPD and CM-Ura glucose without UFA. After incubation at 30° C. for 5 days, growth was observed (FIG. 11A-FIG. 11E). As expected, Dasher GFP expression could not complement ΔOLE1 growth without UFA (FIG. 11A-FIG. 11E). DNA sequences which encode for desaturase variants were synthesized (to include nucleotide changes which remove restriction sites used for cloning purposes), and cloned into pOLE1 using SpeI-NotI sites (Genscript, SEQ ID NOs: 9-13). Complementation assay of ΔOLE1 with insect desaturases were performed in the same way as with OLE1 desaturase.

palmitic acid = assay: in vivo bioconversion of palmitic acid into (Z)-11-hexadecenoic acid in S. cerevisiae ΔOLE1; details: ΔOLE1, ~96 h in minimal medium containing palmitic acid
Experimental: To assess functional expression, two positive transformation clones that had been patched on CM-Ura glucose agar medium containing UFA were inoculated in 1.5 mL CM-Ura glucose liquid medium containing palmitic acid (in ethanol) at a final concentration of 300 mg/L, and with 6.7 g/L of YNB. For (z)-11-hexadecenoic isomer confirmation, a 20 mL culture was generated. Bioconversion assay proceeded for 96 h at 28° C. prior to GC-MS analysis.
Total lipid composition as well as the (Z)-11-hexadecenoic acid quantification was based on modified procedures by Moss et al. (1982) (Moss, C. W., Shinoda, T. & Samuels, J. W. Determination of cellular fatty acid compositions of various yeasts by gas-liquid chromatography. J. Clin. Microbiol. 16: 1073-1079 (1982)) and Yousuf et al (2010) (Yousuf, A., Sannino, F., Addorisio, V. & Pirozzi, D. Microbial Conversion of Olive Oil Mill Wastewaters into Lipids Suitable for Biodiesel Production. J. Agric. Food Chem. 58: 8630-8635 (2010)). The pelleted cells (in 1.5 mL plastic tubes), usually about 10 mg to 80 mg, were resuspended in methanol containing 5% (w/w) of sodium hydroxide. […]
The regioselectivity of biologically produced (Z)-11-hexadecenoic acid was determined by comparing the fragmentation patterns of the dimethyl disulfide (DMDS) derivative with the DMDS derivative of an authentic standard. […]

Molecule | activity toward Z11-hexadecenoic acid among the reductases tested (Z11-hexadecenoic acid; S. cerevisiae) | Z11-hexadecenol production (Z11-hexadecenoic acid; W303A, within 48 h of protein induction, 300 mg/L Z11-hexadecenoic acid) | rescue of ΔOLE1 growth without UFA (S. cerevisiae ΔOLE1; minimal medium (CM-Ura glucose) agar plate) | rescue of ΔOLE1 growth without UFA (S. cerevisiae ΔOLE1; rich medium (YPD) agar plate) | (Z)-9-hexadecenoic acid in C16-fatty acid (palmitic acid) [%] | hexadecanoic acid in C16-fatty acid (palmitic acid)
B1 | most active | ≤ 70 μM and ≤ 16 mg/L |  |  |  | 
B2 |  |  | rescued ΔOLE1 growth without exogenous UFA | highest level of growth | ~31.4 | approximately 68.6%
